According to patent US20220119492A1 (MEDIKINE, published 2022):
Bridge positions count the residues as written; N and C are the ends. Ends that are not written are not given here.

T1: human IL-2Rβ (CD122 protein, Fc Tag) (27-239) (human, UniProt P14784 27-239)
T1 construct: range 27-239; Bought protein; also called hu-IL-2Rβ subunit; IL-2Rβ subunit; not shown: Fc tag of the bought protein
T1 sequence (looked up): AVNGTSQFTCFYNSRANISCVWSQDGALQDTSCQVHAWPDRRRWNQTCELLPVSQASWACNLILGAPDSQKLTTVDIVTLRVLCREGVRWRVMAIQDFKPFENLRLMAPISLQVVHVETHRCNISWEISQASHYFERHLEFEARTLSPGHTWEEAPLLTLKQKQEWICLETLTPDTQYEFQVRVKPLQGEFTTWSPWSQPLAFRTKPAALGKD


Target: T1, human IL-2Rβ (CD122 protein, Fc Tag) …
Test: phage ELISA competition
Summary of the method: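 IC50 comes from absorbance measured across a dilution series of ligand in a competitive binding ELISA against human IL-2Rβ-Fc, with a phage tracer as the competitor. The phage tracer (50 μL) was added with no wash step for 45 min at 4° C. Detection of bound phage used TMB for 1 to 15 min at 25° C, then stop solution and a reading at 450 nm.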

| Binder | IC50 |
| --- | --- |
| WQPCWRAKLGELCDLE (disulfide 4-13 (inferred)) [SEQ ID NO 2594] | < 100 µM |
| WKPCWMAGLGELCELD [SEQ ID NO 2592] | < 100 µM |
| SNPCWMAQLWELCDLE [SEQ ID NO 2584] | < 100 µM |
| LHPCWMAQLGELCDLE [SEQ ID NO 2590] | < 100 µM |
| WWPCSSAELGEICDFD [SEQ ID NO 2593] | < 100 µM |
| GQVVETSLPCWEAQLGELCVLD [SEQ ID NO 2604] | < 100 µM |
| WKPCWLAQLGDLCEME [SEQ ID NO 2587] | < 100 µM |
| WLPCWLAHLGDICDLQ [SEQ ID NO 2597] | < 100 µM |
| WLSPPSYLPCWMAQLGELCDLV [SEQ ID NO 2598] | < 100 µM |
| SLPCWMAQLGELCDLV [SEQ ID NO 2591] | < 100 µM |
| YKPCWIAQLGELCELE [SEQ ID NO 2585] | < 100 µM |
| AVSHGNWLPCYIAQLGELCDLD [SEQ ID NO 2609] | < 100 µM |
| WNPCWIAQLGDLCDMV [SEQ ID NO 2596] | < 100 µM |
| WSPCWIATLGELCDLD [SEQ ID NO 2595] | < 100 µM |
| GAGVLHRWPCWMAKLGDLCDLD [SEQ ID NO 2600] | < 100 µM |
| WLPCWMAQLGELCVME [SEQ ID NO 2589] | < 100 µM |
| ALVGGTFYPCYVAHLGELCDIE [SEQ ID NO 2606] | < 100 µM |
| WYPCHMAKLRELCDLD [SEQ ID NO 2582] | < 100 µM |
| WDVHAIRNPCWLAKLGDLCDLD [SEQ ID NO 2599] | < 100 µM |
| EQGMLGYFPCWKALLGDVCDLD [SEQ ID NO 2602] | < 100 µM |
| WLPCWMAKLGDLCELE [SEQ ID NO 2588] | < 100 µM |
| IDRADGWKPCWIAQVGELCVLE [SEQ ID NO 2607] | < 100 µM |
| WQPCWMAQLGELCDLE [SEQ ID NO 2586] | < 100 µM |
| VRAWYPCWIARLGELCDLEVD (disulfide 7-16 (inferred)) [SEQ ID NO 2580] | < 100 µM |
| DTGRDGWKPCWMALLGELCELE (disulfide 10-19 (inferred)) [SEQ ID NO 2601] | < 100 µM |
| WRVTASLQPCWMAQLGELCDLN [SEQ ID NO 2603] | < 100 µM |
| YRRERVEFPCWLAQLGELCDKE [SEQ ID NO 2608] | < 100 µM |
| WFPCWMAQLGEVCDLD [SEQ ID NO 2581] | < 100 µM |
| SLPCWMAQLGDLCELH (disulfide 4-13 (inferred)) [SEQ ID NO 2583] | < 100 µM |
| TVGQFEWYPCSTAQLGELCDLD [SEQ ID NO 2605] | < 100 µM |

Next, values leading:

| IC50 | Binder |
| --- | --- |
| < 100 µM | YKPCQMAQLGELCDLDVDNKAE [SEQ ID NO 2613] |
| < 100 µM | SKPCWMAQLGELCDLDVWNLQM [SEQ ID NO 2620] |
| < 100 µM | MGSWLPCWMAQLGDLCDVEGGM [SEQ ID NO 2636] |
| < 100 µM | FYPCWKARLGELCELEELRGYY [SEQ ID NO 2617] |
| < 100 µM | QKGFLPCWRAQLGQLCDMESQY [SEQ ID NO 2637] |
| < 100 µM | IPKGESWFPCWMAAMGELCDLE [SEQ ID NO 2610] |
| < 100 µM | QPAWLPCWLAQLGELCDLGTGA [SEQ ID NO 2643] |
| < 100 µM | WKPCWIADLGELCDLAPAWHEY [SEQ ID NO 2618] |
| < 100 µM | SKPCWLAQLGDLCDFDWTAADH [SEQ ID NO 2626] |
| < 100 µM | WRRWYPCWMAQLGELCDLDQWT (disulfide 7-16 (inferred)) [SEQ ID NO 2639] |
| < 100 µM | WKPCFIASLGELCDLDQGSVEV [SEQ ID NO 2629] |
| < 100 µM | FKPCWIANLGELCDMDDERSSE [SEQ ID NO 2614] |
| < 100 µM | GYPCWLAQLGDYCDLDAGAPSW [SEQ ID NO 2621] |
| < 100 µM | WKPCWRAQLGELCDLELGPSER [SEQ ID NO 2631] |
| < 100 µM | WKPCWMARLGELCDIEDTKVNA [SEQ ID NO 2615] |
| < 100 µM | WFPCWMAQLGDLCELEPDSVPA [SEQ ID NO 2627] |
| < 100 µM | RRSWYPCRIAQLGELCDLDPRV (disulfide 7-16 (inferred)) [SEQ ID NO 2640] |

| IC50 | Binder |
| --- | --- |
| < 100 µM | WYPCYMASLGELCDLQSSISPR [SEQ ID NO 2634] |
| < 100 µM | WKPCWLAQLGELCDLERPSTTS [SEQ ID NO 2623] |
| < 100 µM | GSGWQPCWMADLGELCDLDNEK [SEQ ID NO 2638] |
| < 100 µM | WYPCWMAHLGDVCDLESFGQTE [SEQ ID NO 2612] |
| < 100 µM | WKPCWMAALGELCDLERSVGKV [SEQ ID NO 2630] |
| < 100 µM | YVPCYMARLGELCELEANRPGQ [SEQ ID NO 2625] |
| < 100 µM | WYPCWIAQLGEVCDLEKQTGSV (disulfide 4-13 (inferred)) [SEQ ID NO 2611] |
| < 100 µM | YWPCSMASLGELCDLEWQGRLP [SEQ ID NO 2633] |
| < 100 µM | AYRIYPCWKAQLGELCDLDNAD [SEQ ID NO 2641] |
| < 100 µM | RLPCWRAQLGDLCELDWGLDMG [SEQ ID NO 2619] |
| < 100 µM | WTPCWIAHLGDLCDLEPQDDTD (disulfide 4-13 (inferred)) [SEQ ID NO 2628] |
| < 100 µM | SWPCWMAQLGDLCDLDGSAGAS [SEQ ID NO 2622] |
| < 100 µM | WYSCGKAQLGELCDLDVESQPG [SEQ ID NO 2624] |
| < 100 µM | QRNSFPCWLAQLGDLCDLGDWA [SEQ ID NO 2642] |
| < 100 µM | SLPCWIARLGELCDLDGYDGEE [SEQ ID NO 2616] |
| < 100 µM | WYPCWMAQLGELCDHEWPSYGA [SEQ ID NO 2635] |
| < 100 µM | FFPCWMGQLGDLCDLEVRSMQK [SEQ ID NO 2632] |
